This data set in a line: label from the status in PepcDB records.

As for “MSGSSHYPVANWNLDGIVSGLRGARQEWRGPRGRLREESESGVREFPSQESLRDIMRQLFGALFPMRLGPIDLREEVEDFYVGHTIGAALDALLHQVCLELQHLGRDDPQPYGQVLERAVDIVRRFGAELPAVRKALDLDVTAAYQGDPAARSVDEVLLCYPGVTAMIHHRLANVLYRLGAPMLARIVAEIAHSDTGIDIHPGATIGRSFFIDHGTGVVIGETAIIGERVRLYQMVTLGAKRFPPGENGELKKGLPRHPIIEDDVVIYAGATILGRITIGQGSTIGGNVWLTHSVPPNSTVTQAGAINDMPDCGLGGLEHHHHHH”, the protein production entry is “failed”. Consider “MSGTKLEDSPPCRNWSSASELNETQEPFLNPTDYDDEEFLRYLWREYLHPKEYEWVLIAGYIIVFVVALIGNVLVCVAVWKNHHMRTVTNYFIVNLSLADVLVTITCLPATLVVDITETWFFGQSLCKVIPYLQTVSVSVSVLTLSCIALDRWYAICHPLMFKSTAKRARNSIVIIWIVSCIIMIPQAIVMECSTVFPGLANKTTLFTVCDERWGGEIYPKMYHICFFLVTYMAPLCLMVLAYLQIFRKLWCRQIPGTSSVVQRKWKPLQPVSQPRGPGQPTKSRMSAVAAEIKQIRARRKTARMLMVVLLVFAICYLPISILNVLKRVFGMFAHTEDRETVYAWFTFSHWLVYANSAANPIIYNFLSGKFREEFKAAFSCCCLGVHHRQEDRLTRGRTSTESRKSLTTQISNFDNISKLSEQVVLTSISTLPAANGAGPLQNW”, for which the protein production entry is on record as “failed”. Then “MSGTLFTYRRKVDFGDCDSARIYFTPRAVDYAVEAVEAWFGDVLGVSWADLFLRHDLDVTFVRMGCEYFRPVIADQTVHVRVRATAVDRSSVTFSAAGEDDSGGVFFRATLVAQFRAGRNRAPVPIPPRYRERMEDCLEQADGKSGTVAQRVGGEPFLSRLQSDGVHFTVRRRVVYGDCTLSGTVYAPRLFNYAVEAVGEWYRETLGISWREQCIRLRGAPFREVWCERLAPLVPGQVITMTVGIPRLGKSSIGYEVVGYDDRGEPCFQVGMSACYISEETGSIKAIPFPDDMRSRILAYQVLCDQGVIPATAS”, with “failed”. For the sequence “MSHAKGFKKDYYGGTLMALVGLAAVMAGLQYHTGSLSHMGPGFFPVAVGALLAFVGVLIAVSARNDEPKEDKPSGHGHSHAAPDLRGTVCIVLGTLAFLLFGKYGGMIPATFAIVFISALGDRSNSIKQAFLLSIAMCVIAAVVFSWALQLQLPMFTWGA”, the protein production entry was “failed”. Regarding “MSHAVANKTETEAAPNSSLKQSAAPQPANSHDAKLLNGTLARTNGLTHAASVATSSSGSYGSSSAAGSNAGSGGPTSSASLSIAAGVASSTALPLPPSSNGLQMPYERFRADDTSYVPIAQFYAGRSVFITGGTGFMGKVLVEKLLRSCPEIRNIYLLIRPKRGQEVSARLTELLNAPLFESLRQEKPKELSKVIPISGDITSEELGISEKDQNLLCRNVSVVFHSAATVKFDEKLKLSVTINMLGTKRLVELCHRMLSLDALIHVSTAYCNCDRTDVSEVIYAPPYNPDDIISLINWLPEDILDQLTPRLIGKRPNTYTFTKALAEHMLLKEAGNLPVAIVRPSIVTASLNEPFAGWVDNFNGPTGLVSALAKGMFRTMMCEKNYVADMVPVDIVINLMIAAAWRTATRKSNNLLIYNCCTGQRNPIIWSEFVKHAMTSVRKHPLEGCLWYPTGDLRMNRPMNTLNCIAKHFLPAYILDGVARIMGKKPFVVNVQNKIAKAVECLEYFATRQWRFKDDNVHALLHTLSPKDREIFVFDVRHINWDKYVERYVLGFREFLFKQRPESLPASRKRMLRLYYLHQLTKLVAVLLTWRFLMSRSKRLNDLWSSFLENALRMARLIPFL”, the protein production result was “failed”.

For “MSHAVVSWTLWSLALYLTLPYLSSAIEHSINNPLFVGPFYIISSGIGSLSLLALERHVKLLSTIGLALSGIGLLMIGVDANQLLTIIGFIFYNLYWLSVPIFYYLLSEEEGSLTKAWSISMVPAIIMPVIAGILIRWGEIIIFILGGLLQLTSSIILILVKHRIDEDHMVGYDVGIPKNVIFVVLPLSIVMPFLYLDVRESLIWVIYSSGQILGILMSWFLWKSKNAIMLSLIIFSGIIFSVFSPIGILFYGSSEALVALGIEKSRPSLMKHAIKVALTEALVWTVGYAVGSLLYYISGFLPFIYSSLVSLILAMIIGLFSSLTFNSVISKNPLKNTIPFKIVRYLTLREGIFPYFKIS”, the protein production result is on record as “failed”. The value for “MSHEVDELFDAEMLQQAKTLSAFMSVNSERLPEAGVIIESIGAHNYEDKLSYRIENTEELLLMQTEGAPDASAFEFIPGFSVKRVKDELWHAFGLENATGQRILMLQEDGFRSELRMDLTVDTVIPILLILPFMLWLGWWTINRNFSSFNRLAGELRRKRADDYTNFVEDNDREEVALVKRSLNHYINRIEQTFLREKRFSADAAHELRTPLASLKAQIQSRLGSATSEQQNELQPLLDSTERLVKLVESLLQLSKAELPPEQLKQVNVASVLRQVLADQYVAAESKGLSYHAQLPTVFQQTSDESYLYLLFANALDNAIKYAVPGSHIGIEVTENQIFVCNRVAADHVIDIDRITERFYRGKQLDVEGSGLGLSIVRNLAEQLGVQINFRHIDDEFCFIVTFDTDQ” was “failed”. Take “MSHFVHPNALCESDTIGEGTRVWAFAHVLPGARLGRDCNICDGVFIESDVVVGDRVTVKCGVQLWDGVRLGDDVFVGPNATFTNDLFPRSRVYPEKFLGTVVESGASIGANATILAGTTIGSGAMIGAGAVVTRSVPPNAIVVGNPARIVGYVSDKDATGSAPSPTGQGITDTAVPGVKLYRMPSFADMRGSLSVGDFETFLPFNAKRYFLVYGVPTQETRGEHAHKRCHQFLICVSGSVRVLADDGTRRIDVELNSPSQGIHLPPMIWGTQYKYSKDAVLLVFASESYDTDEYIRDYSDFKSLANAAR”: the protein production result is recorded as “failed”. As for “MSHIQRETSCSRPRLNSNLDADLYGYRWARDNVGQSGATIYRLYGKPNAPELFLKHGKGSVANDVTDEMVRLNWLTAFMPLPTIKHFIRTPDDAWLLTTAIPGKTAFQVLEEYPDSGENIVDALAVFLRRLHSIPVCNCPFNSDRVFRLAQAQSRMNNGLVDASDFDDERNGWPVEQVWKEMHKLLPFSPDSVVTHGDFSLDNLIFDEGKLIGCIDVGRVGIADRYQDLAILWNCLGEFSPSLQKRLFQKYGIDNPDMNKLQFHLMLDEFF”, the protein production result is listed as “not failed”.

In the case of “MSHRSPLRRLYPISAGGTAMRRSFAIGLTVLFLGNGAVMLAAPYPWYLAVPGVVLTGPFNDHFVRDVGAAYLACGVATALGAWNLRRHAGAVVVAATFQGLHAMIHLVTPFCGAGAPWLLLARDFPGVFLPTAATIWLAIAAFQPSEGEQK”, the protein production result is “failed”.

Take “MSHRSPSVTPAVSVLIPAWNAVRHLPAALDGLLSQTFQDWEAVVVDDGSQDETPALLAAYAARDARIRPLHVEHGGIVHALNHGLLHVRGRHVARMDADDTCHPERLALQCHALDNAPHLGLVASRVTFGGDAAQCGGFVRYVDWTNSLLCHEDIALGRFRESPLVHPSVMFRRELIDRFGPYANGPFPEDYELWLRWLEAGVRMEKLPEHLLVWNDPPGRLTRTHDNYAEAGFVALRTRYLARWLCAHNPQHPDVWVIGAGKASRRRARPLCEHGIRIRAWVDIDPHKIGNIVEGLPVVGREAMPAPGQGFMLAFLAGHGAAEELELFLHGAGYLPGQDYLLASLEHHHHHH”: the protein production result is listed as “not failed”. Take “MSHTKIMSTDQLETQITELDNLPEHREIVTFMRRSAPLNTSQRSALEQYQDLILEYPVGDLRQHFEHPEHPLTVEIGFGMGRSLVLMAKAHPERNFVGIEVHVPGIAQCVYEAGMAGLKNLRVLDADAIQVLREMPDNSINCVQLYFPDPWQKKRHFKRRFVIHERMQLVEQKLELGGTFHAATDWEPYAEWMLDVLDNRPALENLAGKGNSYPRPEWRPQTKFERRGIESGHKINDFIFKKIGS”: the protein production result is given as “failed”.

Take “MSIDLKKRKVEEDVRSRGKNSKIFSPFRIIGNVSNGVPFATGTLGSTFYIVTCVGKTFQIYDANTLHLLFVSEKETPSSIVALSAHFHYVYAAYENKVGIYKRGIEEHLLELETDANVEHLCIFGDYLCASTDDNSIFIYKKSDPQDKYPSEFYTKLTVTEIQGGEIVSLQHLATYLNKLTVVTKSNVLLFNVRTGKLVFTSNEFPDQITTAEPAPVLDIIALGTVTGEVIMFNMRKGKRIRTIKIPQSRISSLSFRTDGSSHLSVGTSSGDLIFYDLDRRSRIHVLKNIHRESYGGVTQATFLNGQPIIVTSGGDNSLKEYVFDPSLSQGSGDVVVQPPRYLRSRGGHSQPPSYIAFADSQSHFMLSASKDRSLWSFSLRKDAQSQEMSQRLHKKQDGGRVGGSTIKSKFPEIVALAIENARIGEWENIITAHKDEKFARTWDMRNKRVGRWTFDTTDDGFVKSVAMSQCGNFGFIGSSNGSITIYNMQSGILRKKYKLHKRAVTGISLDGMNRKMVSCGLDGIVGFYDFNKSTLLGKLKLDAPITAMVYHRSSDLFALALDDLSIVVIDAVTQRVVRQLWGHSNRITAFDFSPEGRWIVSASLDSTIRTWDLPTGGCIDGIIVDNVATNVKFSPNGDLLATTHVTGNGICIWTNRAQFKTVSTRTIDESEFARMALPSTSVRGNDSMLSGALESNGGEDLNDIDFNTYTSLEQIDKELLTLSIGPRSKMNTLLHLDVIRKRSKPKEAPKKSEKLPFFLQLSGEKVGDEASVREGIAHETPEEIHRRDQEAQKKLDAEEQMNKFKVTGRLGFESHFTKQLREGSQSKDYSSLLATLINFSPAAVDLEIRSLNSFEPFDEIVWFIDALTQGLKSNKNFELYETFMSLLFKAHGDVIHANNKNQDIASALQNWEDVHKKEDRLDDLVKFCMGVAAFVTTA”: the protein production entry is “failed”.

Take “MSIEIRKLSIEDLETLIEVARESWKWTYAGIYSEEYIESWIREKYSKEKLLNEIVRSQSNLDILFLGAFADSTLIGFIELKIIANKAELLRLYLKPEYTHKKIGKTLLLEAEKIMKKKGILECRLYVHRQNSVGFSFYYKNGFKVEDTDGSDFIMEKKY”: the protein production result is listed as “not failed”. For the sequence “MSIENLSSNKSFGGWHKQYSHVSNTLNCAMRFAIYLPPQASTGAKVPVLYWLSGLTCSDENFMQKAGAQRLAAELGIAIVAPDTSPRGEGVADDEGYDLGQGAGFYVNATQAPWNRHYQMYDYVVNELPELIESMFPVSDKRAIAGHSMGGHGALTIALRNPERYQSVSAFSPINNPVNCPWGQKAFTAYLGKDTDTWREYDASLLMRAAKQYVPALVDQGEADNFLAEQLKPEVLEAAASSNNYPLELRSHEGYDHSYYFIASFIEDHLRFHSNYLNA”, the protein production entry is “not failed”. Turning to “MSIEPVFILVRPQMGENIGAAARAMLNFGLGRLRIVDPRDGWPNPKAVAMASGAGRLLDHAGLFPTVAEAIRDCDYVFATTARGRELTKPVMTPERAMAHGRALTGEGRRVGILFGPERTGLENEDVALANAIVTVPVNPEFFSLNLAQCVLLLAYEWRRQHDETPPEVIDMARVDFASGLEVEKLGDHFEEKLEAAGFFFPPEKAPGMKLNLRNMWARLPLTRADVQTLHGMLRQIAWKLKQ”, the protein production entry is “not failed”. Then “MSIEVIAVRLTKGMDLKLSLAKLVAEHDIKAGSIASCVGCISDLNLRLAGAESTLTKREPFEIVSVMGTLTPEHQHVHISVSDREGRVWGGHLLEGTVIDTTAELIIHSYSELEFTRAMDDSTGYTELQVNPSKLEHHHHHH”, with “not failed”; and “MSIEYKSEAAAVRRFPGSIVVMGVSGSGKSSVGEAIAEACGYPFIEGDALHPPENIRKMSEGIPLTDDDRWPWLAAIGERLASREPVVVSCSALKRSYRDKLRESAPGGLAFVFLHGSESVLAERMHHRTGHFMPSSLLQTQLETLEDPRGEVRTVAVDVAQPLAEIVREALAGLARL”, with “not failed”. On to “MSIKILSESEIKQVANSYQAPAVLFANPKNLYQRRAKRLRDLAQNHPLSDYLLFAADIVESQLSTLEKNPLPPQQLEQLNTIEPLNAKTFKRNSIWREYLTEILDEIKPKANEQIAATIEFLEKASSAELEEMANKLLAQEFNLVSSDKAVFIWAALSLYWLQAAQQIPHNSQVENAENLHHCPVCGSLPVASMVQIGTSQGLRYLHCNLCESEWNLVRAQCTNCNSHDKLEMWSLNEELALVRAETCGSCESYLKMMFQEKDPYVEPVADDLASIFLDIEMEEKGFARSGLNPFIFPAEEA”, for which the protein production entry is “failed”.

(Values after a protein production outcome set (Wang et al. 2014).)
